Measured values published in paper PMC6123711, “Conformational signatures in β-arrestin2 reveal natural biased agonism at a G-protein-coupled receptor” (Communications Biology, 2018).

What was measured:
[1] = system: mice; details: cited from earlier work
From the text: (§1) G-protein-coupled receptors (GPCRs) are the largest family of cell surface receptors that communicate extracellular stimuli to the cell interior[1]. Biased ligands are of particular interest because they offer the possibility to design a novel class of therapeutic agents. In some GPCRs, biased ligands that preferentially activate G-protein-dependent signaling have therapeutic potential. […] Most descriptions of biased ag ...

[2] = system: human Galr2; test: Recruitment of β-arrestin2-FlasH1-3 to Galr2 (NanoBit); type: cell-based; details: NanoBit luminescence
From the text: To investigate the effects of GPCR activation on the dynamics of β-arrestin2 conformation, we developed a series of FlasH BRET conformational biosensors[31],[32] by inserting the six-amino-acid motif, CCPGCC, immediately after the amino acid residue 140 (FlasH1), 263 (FlasH2), and 410 (FlasH3), respectively, into the human β-arrestin2 (Fig. 7a, b). Due to its characteristics (e.g., small size, stable, and bright and sustained luminescence)[33], we covalently linked the Nluc to the N terminus of β-arrestin2 during probe design. Each probe (Nluc–β-arrestin2–FlasH1, 2, and 3) was designed to measure BRET between Nluc and a fluorescein arsenical acceptor located at one of three positions along β-arrestin2. […] All three ligands were able to recruit these β-arrestin2–FlasH constructs to induce luminescence signals, although some signals were lower than that of wild-type β-arrestin2 (Fig. 7c). […]
The arrows indicate the time for treatment with the corresponding agonist. d Nluc–β-arrestin2–FlasH1-3 “conformational hallmarks” of β-arrestin2 by binding to Galr2. The bar graphs depict mean ± s.e.m. values of independent biological replicates (n = 3). *P < 0.05, **P < 0.005, statistically significant differences versus Galanin-stimulated control as determined by a one-way analysis of variance (ANOVA). […]

[3] = system: galanin receptor 1 (Galr1); details: cited from earlier work
From the text: as §1

[4] = system: diet-induced obese rodents; details: cited from earlier work
From the text: as §1

[5] = system: goldfish; details: cited from earlier work
From the text: as §1

[6] = system: luteinizing hormone (LH) secretion; details: cited from earlier work
From the text: as §1

[7] = system: human β-arrestin2 (Galr2-stimulated); test: Intramolecular FlasH BRET at β-arrestin2 conformational biosensors; type: cell-based; details: HEK293 cells, 10 μM agonist
From the text: To investigate the effects of GPCR activation on the dynamics of β-arrestin2 conformation, we developed a series of FlasH BRET conformational biosensors[31],[32] by inserting the six-amino-acid motif, CCPGCC, immediately after the amino acid residue 140 (FlasH1), 263 (FlasH2), and 410 (FlasH3), respectively, into the human β-arrestin2 (Fig. 7a, b). Due to its characteristics (e.g., small size, stable, and bright and sustained luminescence)[33], we covalently linked the Nluc to the N terminus of β-arrestin2 during probe design. Each probe (Nluc–β-arrestin2–FlasH1, 2, and 3) was designed to measure BRET between Nluc and a fluorescein arsenical acceptor located at one of three positions along β-arrestin2. We hypothesized that observing changes in BRET efficiency from multiple sites would produce a β-arrestin2 conformational hallmark characteristic for each ligand[31]. We used a structural complementation assay based on NanoBit technology to test whether the insertion of the FlasH motif would have an effect on β-arrestin2 recruitment. All three ligands were able to recruit these β-arrestin2–FlasH constructs to induce luminescence signals, although some signals were lower than that of wild-type β-arrestin2 (Fig. 7c). […]
Intramolecular BRET at β-arrestin2 conformational biosensors was measured based on the steps and procedures previously described. […]

[8] = target: T1, Galr2–β-arrestin2 complex (Homo sapiens, UniProt O43603); test: Reversal assay for dissociation kinetics; type: cell-based
T1 construct: expressed in transfected cells; host or cells: HEK293 cells, transient transfection with Lipofectamine 2000; b62 only says 'the cells'
T1 sequence (O43603 whole entry): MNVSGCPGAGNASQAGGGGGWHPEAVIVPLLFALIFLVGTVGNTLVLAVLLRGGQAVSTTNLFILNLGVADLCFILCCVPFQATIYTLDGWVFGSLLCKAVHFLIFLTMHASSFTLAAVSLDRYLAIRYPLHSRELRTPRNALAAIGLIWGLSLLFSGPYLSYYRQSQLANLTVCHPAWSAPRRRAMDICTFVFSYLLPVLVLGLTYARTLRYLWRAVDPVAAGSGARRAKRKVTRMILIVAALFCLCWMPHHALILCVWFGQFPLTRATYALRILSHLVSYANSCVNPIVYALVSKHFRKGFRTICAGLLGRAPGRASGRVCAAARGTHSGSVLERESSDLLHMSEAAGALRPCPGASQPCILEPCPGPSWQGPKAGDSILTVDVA
T1 sequence (P32121 whole entry partner): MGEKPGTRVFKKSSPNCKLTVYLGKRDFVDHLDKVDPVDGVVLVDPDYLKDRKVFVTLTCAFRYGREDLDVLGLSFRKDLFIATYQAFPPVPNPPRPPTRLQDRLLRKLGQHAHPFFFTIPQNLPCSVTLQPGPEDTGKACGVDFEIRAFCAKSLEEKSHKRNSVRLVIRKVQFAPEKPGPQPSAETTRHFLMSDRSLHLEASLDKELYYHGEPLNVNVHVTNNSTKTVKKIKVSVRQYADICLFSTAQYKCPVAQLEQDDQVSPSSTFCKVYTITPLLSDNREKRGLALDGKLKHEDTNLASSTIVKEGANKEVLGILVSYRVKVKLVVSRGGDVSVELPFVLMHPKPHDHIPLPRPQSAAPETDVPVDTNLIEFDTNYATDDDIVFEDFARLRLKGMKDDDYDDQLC
Procedure: The decay of the luminescent signal may reflect dissociation rate of ligand from Galr2 as the β-arrestin2 response returns to basal levels in washout experiments.
Ligand removal was performed by simply changing the medium containing no ligand and then immediately continue measuring luminescence. Samples with no ligand removal were used as a control. […] The results are expressed as the mean ± s.e.m. values of two independent experiments
One day before transfection, the cells were seeded in 96-well plates at a density of 2.5 × 10^4 cells per well. […] At 24 h post transfection, the medium was aspirated and replaced with 100 μl OPTIMEM and incubated at room temperature. After a 10-min incubation, 25 μl substrate (furimazine) was added, and once every minute subsequent luminescence measurements were taken for 10 min for signal stabilization. A total of 10 μl ligand was then added to each well and luminescence measurements were recorded immediately and once every minute during 10 min for signal stabilization. After that time wells allocated for ligand removal, ligand containing medium was replaced for medium containing only furimazine substrate and no ligand. Immediately continued recording the time course luminescence values once every minute during 1 h.

Galanin [reference compound]
food intake [1]: food intake increase | recruitment of β-arrestin2–FlasH1-3 constructs [2]: maximal response

B1: Spexin (peptide, UniProt Q9BT56 27-116, looked up)
Spexin: APQRLLERRNWTPQAMLYLKGAQGRRFISDQSRRKDLSDRPLPERRSPNPQLLTIPEAATILLASLQKSPEDEEKNFDQTRFLEDSLLNW
modifications: Spexin
notes: endogenous peptide ligand of Galr2 and Galr3; synthesized by AnyGen
activation of Galr1 [3]: does not activate Galr1 | body weight [4]: weight loss | appetite [5]: suppresses appetite | LH secretion, goldfish [6]: attenuates LH secretion | ΔNet BRET in Nluc–β-arrestin2–FlasH1-3 versus Galanin ([7]; 2 min, n = 3, each probe): significantly different from those observed in Galanin | ΔNet BRET similarity between Spexin and Fmoc-dA4-dQ14 ([7]; FlasH1-3 biosensors): very similar between Spexin and Fmoc-dA4-dQ14 except for the FlasH3 conformational biosensor | decrease in luminescence signal after ligand removal ([8]; 10 μM agonist, medium change, two independent experiments): rapid decrease in luminescence signal back to basal levels | half-life (t1/2) of Galr2–β-arrestin2 complex luminescence decay after ligand removal ([8]; HEK293 cells, 10 μM agonist, washout, indirect measure of ligand dissociation, mean ± s.e.m. of two independent experiments): 3.35 ± 0.7 min | residence time relative to Galanin ([8]; reversal dissociation assay): significantly shorter than Galanin
